Results: patent publication US10973880B2, “Compositions and methods for treating pulmonary hypertension” (Acceleron Pharma Inc., priority 2016, dated 2021)

Columns and labels:
[1] = test system: rat model of pulmonary arterial hypertension (PAH), monocrotaline (MCT) induced; test: monocrotaline rat model of pulmonary arterial hypertension; format: in vivo, Sprague Dawley rats
Procedure: The effects of an ActRIIA-mFc fusion protein (ActRIIA-mFc homodimer as described in Example 1), an ALK4-Fc-ActRIIB-Fc heterodimer (as described in Examples 12 and 13), and sildenafil (a phosphodiesterase-5 inhibitor approved for the treatment of PAH) were examined in a rat model of pulmonary arterial hypertension (PAH). In this model, Sprague Dawley rats received a […] injection of monocrotaline (MCT) to induce PAH 24 hours prior to start of therapy.
Rats were separated into different treatment groups (10 mice per group): 1) treatment with MCT (60 mg/kg administered i.p. as a single dose at day 1 of study) and Tris buffered saline (i.p. as 1 ml/kg, every three days) (vehicle treatment group), 2) treatment with an ActRIIA-mFc polypeptide (10 mg/kg administered i.p. every three days) and MCT (60 mg/kg administered i.p. as a single dose at day 1 of study), 3) treatment with an ALK4-Fc:ActRIIB-Fc heterodimer (10 mg/kg administered i.p. every three days) and MCT (60 mg/kg administered i.p. as a single dose at day 1 of study), 4) treatment with sildenafil (30 mg/kg administered orally twice daily) and MCT (60 mg/kg administered i.p. as a single dose at day 1 of study), and 5) control rats (Tris buffered saline administered i.p. as 1 ml/kg, every three days). Rats were treated for 28 days. Body weights were recorded prior to first dose on Day 1 and then weekly throughout the study.
On day 28, rats were anesthetized by an intraperitoneal injection of ketamine/xylazine (80/10 mg/kg). An incision was made in the neck, and a jugular vein was isolated and ligated anteriorly. A fluid-filled pressure catheter was introduced into the right jugular vein to measure pulmonary artery pressure (PAP). Another incision was made in the inguinal region, and femoral artery was isolated and ligated anteriorly. A Millar pressure catheter was introduced into a femoral artery to measure systolic arterial pressure, diastolic pressure, and heart rate. Mean arterial pressure and right PAP were monitored using the Notocord HEM (Croissy sur Seine, Frnace) v3.5 data capture system for approximately 5-10 minutes until stable measurements were obtained. During the measurements, rats were maintained at approximately 37° C. on a heating pad and body temperature was monitored throughout the procedure with a rectal temperature probe. At the conclusion of the procedure, rats were euthanized, and the hearts and lungs were removed. The entire heart was weighed. Next, the atria were removed and the left ventricle with septum (LV+S) was separated from the right ventricle (RV). The ventricles were weighed separately. Hypertrophy was assessed, in part, by calculating RV/LV+S. The lungs were also weighed.
Similar trends were observed on vessel muscularity based on histopathologic scoring. After staining tissue samples to detect αSMA/elastin, 100 pulmonary arterioles, between 10 μm and 50 μm in size, per animal were categorized as non-muscularized, partially muscularized, or completely muscularized. Pulmonary arterioles from vehicle treated rats were determined to be 62.3% completely muscularized, 36.4% partially muscularized, and 1.4% non-muscularized. […] Histopathological scoring of smooth muscle hypertrophy of pulmonary arterioles were also recorded as follows: 0 (normal), 1 (minimal), 2 (mild), 3 (moderate), or 4 (marked).

GDF11 = molecular target: T1, GDF11 (Homo sapiens, UniProt O95390); test: A-204 reporter gene assay, pGL3(CAGA)12 luciferase; format: cell-based; details: Example 13
T1 sequence (O95390 299-407): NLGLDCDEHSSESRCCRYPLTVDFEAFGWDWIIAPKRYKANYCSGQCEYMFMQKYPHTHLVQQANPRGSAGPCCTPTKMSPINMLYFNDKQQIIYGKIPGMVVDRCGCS
Text: Day 1: Split A-204 cells into 48-well plate. […]
(§1) In addition, an A-204 Reporter Gene Assay was used to evaluate the effects of ALK4-Fc:ActRIIB-Fc heterodimer and ActRIIB-Fc:ActRIIB-Fc homodimer on signaling by activin A, activin B, GDF11, GDF8, BMP10, and BMP9. Cell line: Human Rhabdomyosarcoma (derived from muscle). Reporter vector: pGL3(CAGA)12 (as described in Dennler et al, 1998, EMBO 17: 3091-3100). The CAGA12 motif is present in TGFβ responsive genes (PAI-1 gene), so this vector is of general use for factors signaling through Smad2 and 3. An exemplary A-204 Reporter Gene Assay is outlined below. • Day 1: Split A-204 cells into 48-well plate. • Day 2: A-204 cells transfected with 10 ug pGL3(CAGA)12 or pGL3(CAGA)12(10 ug)+pRLCMV (1 ug) and Fugene. • Day 3: Add factors (diluted into medium+0.1% BSA). Inhibitors need to be pre-incubated with Factors for about one hr before adding to cells. About six hrs later, cells are rinsed with PBS and then lysed.
(§2) Following the above steps, a Luciferase assay was performed.

activin A = molecular target: T2, activin A (Homo sapiens, UniProt P08476); test: A-204 reporter gene assay, pGL3(CAGA)12 luciferase; format: cell-based; details: Example 13
T2 sequence (P08476 311-426): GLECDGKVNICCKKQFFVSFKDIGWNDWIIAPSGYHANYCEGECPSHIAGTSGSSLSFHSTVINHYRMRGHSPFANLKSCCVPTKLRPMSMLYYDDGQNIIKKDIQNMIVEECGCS
Text: An A-204 reporter gene assay was used to evaluate the effects of ActRIIB-Fc proteins and GDF traps on signaling by GDF-11 and activin A. Cell line: human rhabdomyosarcoma (derived from muscle). Reporter vector: pGL3(CAGA)12 (described in Dennler et al, 1998, EMBO 17: 3091-3100). The CAGA12 motif is present in TGF-beta responsive genes (e.g., PAI-1 gene), so this vector is of general use for factors signaling through SMAD2 and 3.
Day 1: Split A-204 cells into 48-well plate.
Day 2: A-204 cells transfected with 10 ug pGL3(CAGA)12 or pGL3(CAGA)12(10 ug)+pRLCMV (1 μg) and Fugene.
Day 3: Add factors (diluted into medium+0.1% BSA). Inhibitors need to be preincubated with factors for 1 hr before adding to cells. Six hrs later, cells were rinsed with PBS and lysed.
This is followed by a luciferase assay.
as §1, §2

BMP9 = molecular target: T3, BMP9 (Homo sapiens, UniProt Q9UK05); test: A-204 reporter gene assay, pGL3(CAGA)12 luciferase; format: cell-based; design: host or cells: exogenous factor added to A-204 cells (human rhabdomyosarcoma); details: Example 13
T3 sequence (Q9UK05 320-429): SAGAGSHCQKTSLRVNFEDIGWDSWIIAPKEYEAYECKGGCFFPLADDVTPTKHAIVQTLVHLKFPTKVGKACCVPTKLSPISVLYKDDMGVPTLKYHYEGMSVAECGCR
Text: as §1, §2

B1: ALK4-Fc:ActRIIB-Fc heterodimer: heteromeric complex of extracellular domains of human ActRIIB and human ALK4, each separately fused to an Fc domain with a linker (protein)
chain 1: SGPRGVQALLCACTSCLQANYTCETDGACMVSIFNLDGMEHHVRTCIPKVELVPAGKPFYCLSSEDLRNTHCCYTDYCNRIDLRVPSGHLKEPEHPSMWGPVE
chain 2: GRGEAETRECIYYNANWELERTNQSGLERCEGEQDKRLHCYASWRNSSGTIELVKKGCWLDDFNCYDRQECVATEENPQVYFCCCEGNFCNERFTHLPEAGGPEVTYEPPPTAPT
modifications: left off: a dimerising Fc or GST; small tags and cut ends
notes: heteromeric complex of extracellular domains of human ActRIIB and human ALK4, each separately fused to an Fc domain with a linker
improvement in body weight ([1]; 28 days, compared to monocrotaline treated rats, proteins 10 mg/kg i.p. every three days, sildenafil 30 mg/kg orally twice daily): +5.1% | decrease of right heart hypertrophy ([1]; day 28, RV/LV+S, compared to monocrotaline treated rats): 39.6% | decrease of lung weight ([1]; day 28, compared to monocrotaline treated rats): 19.0% | reduction of elevated PAP ([1]; day 28, compared to monocrotaline treated rats, same dosing): 44.6% | effect in reducing vascular muscularization compared with sildenafil ([1]; monocrotaline-induced model): greater effect | inhibition of GDF11 signaling (GDF11): potent inhibitors | inhibition of activin A signaling (activin A): potent inhibitors | inhibition of BMP9 signaling pathway compared to ActRIIB-Fc:ActRIIB-Fc homodimer (BMP9): significantly reduced
